Data from patent US20190119358A1.
*1 amine or outer side, *2 acyl side, *3 side chain or, on linkers, in order; H or OH if unused. Bridges are numbered along the chain shown (N, C = ends). Primed or numbered codes have the meaning given here. Where no end group is shown, it is not given here. [ ]: non-standard residue; d: D form. The star is where a group is joined. ξ: configuration not given here. DAPTZAC3 = (S)-3-(4-(3-acrylamidopropyl)-1H-1,2,3-triazol-1-yl)-2-aminopropanoic acid, C=CC(=O)NCCCc1cn(C[C@H](N[*:1])C(=O)[*:2])nn1; DAPTZAC1 = (S)-3-(4-(acrylamidomethyl)-1H-1,2,3-triazol-1-yl)-2-aminopropanoic acid, C=CC(=O)NCc1cn(C[C@H](N[*:1])C(=O)[*:2])nn1; ADTZPA″ = (S)-2-amino-3-(1-dodecyl-1H-1,2,3-triazol-4-yl)propanoic acid, CCCCCCCCCCCCn1cc(C[C@H](N[*:1])C(=O)[*:2])nn1; MORAC = (S)-5-acrylamido-2-(methylamino)pentanoic acid, C=CC(=O)NCCC[C@@H](C(=O)[*:2])N(C)[*:1]; DABAC1 = (S)-4-acrylamido-2-aminobutanoic acid, C=CC(=O)NCC[C@H](N[*:1])C(=O)[*:2]; Trp(7-aza) = N[C@@H](Cc1c[nH]c2ncccc12)C(=O)O; NMePhe(4-F) = CN[C@@H](Cc1ccc(F)cc1)C(=O)O; ivDde = CC(C)CC(=C1C(=O)CC(C)(C)CC1=O)*; mXylylene = c1cc(C[*:1])cc(C[*:2])c1; Glutaryl = O=C(CCCC(=O)[*:2])[*:1]; Chg = N[C@H](C(=O)O)C1CCCCC1; NMeK = CN[C@@H](CCCCN)C(=O)O; PEG4 = NCCOCCOCCOCCOCCC(=O)O; Phg = N[C@H](C(=O)O)c1ccccc1; Tle = CC(C)(C)[C@H](N)C(=O)O; NMeS = CN[C@@H](CO)C(=O)O; ξPhg = NC(C(=O)O)c1ccccc1; NMeA = CN[C@@H](C)C(=O)O; Pra = C#CC[C@H](N)C(=O)O; Dab = NCC[C@H](N)C(=O)O; Nva = CCC[C@H](N)C(=O)O; Dap = NC[C@H](N)C(=O)O; Acryloyl = C=CC(=O)*; PEG1 = NCCOCCC(=O)O; Ahx = NCCCCCC(=O)O; Sar = CNCC(=O)O

Biological target: GMPPNP-loaded H-Ras or GTP-loaded K-Ras
Test: FP competition, displacement of probe R4007 from Ras

Binder | IC50 [nM]
Ac-[Nva]CY[Tle]KH[NMeA]A[Trp(7-aza)]Y[NMeA][Sar]CGGGCVIM (linker 2-13 via mXylylene) [R4143] | 1640
Ac-[Nva]CY[Tle]K[dP][NMeA][Phg][Trp(7-aza)]Y[NMePhe(4-F)][Sar]C-NH2 (linker 2-13 via mXylylene; SMILES CCC[C@H](NC(C)=O)C(=O)N[C@H]1CSCc2cccc(c2)CSC[C@@H](C(N)=O)NC(=O)CN(C)C(=O)[C@H](Cc2ccc(F)cc2)N(C)C(=O)[C@H](Cc2ccc(O)cc2)NC(=O)[C@H](Cc2c[nH]c3ncccc23)NC(=O)[C@H](c2ccccc2)NC(=O)[C@H](C)N(C)C(=O)[C@H]2CCCN2C(=O)[C@H](CCCCN)NC(=O)[C@H](C(C)(C)C)NC(=O)[C@H](Cc2ccc(O)cc2)NC1=O) [R4144] | 1960
Ac-[Nva]SY[Tle]A[DAPTZAC1][NMeA][ξPhg][Trp(7-aza)]Y[NMePhe(4-F)][Sar]S-NH2 [R4005] | 2070
cyclo(Y[Tle]KH[NMeA][Phg][Trp(7-aza)]Y[NMePhe(4-F)][Sar][Pra]) (SMILES C#CC[C@@H]1NC(=O)CN(C)C(=O)[C@H](Cc2ccc(F)cc2)N(C)C(=O)[C@H](Cc2ccc(O)cc2)NC(=O)[C@H](Cc2c[nH]c3ncccc23)NC(=O)[C@H](c2ccccc2)NC(=O)[C@H](C)N(C)C(=O)[C@H](Cc2c[nH]cn2)NC(=O)[C@H](CCCCN)NC(=O)[C@H](C(C)(C)C)NC(=O)[C@H](Cc2ccc(O)cc2)NC1=O) [R4145] | 2800
Ac-[Nva]CY[Tle]A[DABAC1][NMeA][Phg][Trp(7-aza)]Y[NMePhe(4-F)][Sar]C-NH2 (linker 2-13 via mXylylene; SMILES C=CC(=O)NCC[C@@H]1NC(=O)[C@H](C)NC(=O)[C@H](C(C)(C)C)NC(=O)[C@H](Cc2ccc(O)cc2)NC(=O)[C@@H](NC(=O)[C@H](CCC)NC(C)=O)CSCc2cccc(c2)CSC[C@@H](C(N)=O)NC(=O)CN(C)C(=O)[C@H](Cc2ccc(F)cc2)N(C)C(=O)[C@H](Cc2ccc(O)cc2)NC(=O)[C@H](Cc2c[nH]c3ncccc23)NC(=O)[C@H](c2ccccc2)NC(=O)[C@H](C)N(C)C1=O) [R4146] | 3390
Ac-[Nva]CY[Tle]KH[NMeA][Phg][Trp(7-aza)]Y[NMePhe(4-F)][Sar]C[PEG4][ADTZPA″]-NH2 (linker 2-13 via mXylylene) [R4147] | 5190
Ac-[Nva]SY[Tle]A[DAPTZAC3][NMeA][ξPhg][Trp(7-aza)]Y[NMePhe(4-F)][Sar]S-NH2 (also: places Phg, 7-azaTrp, NMe-4-F-Phe, Sar at 9, 10, 12, 13) [R4148] | 6000
Ac-[Nva]CY[Tle]KH[NMeA][Chg][Trp(7-aza)]Y[NMePhe(4-F)][Sar]C-NH2 (linker 2-13 via mXylylene; SMILES CCC[C@H](NC(C)=O)C(=O)N[C@H]1CSCc2cccc(c2)CSC[C@@H](C(N)=O)NC(=O)CN(C)C(=O)[C@H](Cc2ccc(F)cc2)N(C)C(=O)[C@H](Cc2ccc(O)cc2)NC(=O)[C@H](Cc2c[nH]c3ncccc23)NC(=O)[C@H](C2CCCCC2)NC(=O)[C@H](C)N(C)C(=O)[C@H](Cc2c[nH]cn2)NC(=O)[C@H](CCCCN)NC(=O)[C@H](C(C)(C)C)NC(=O)[C@H](Cc2ccc(O)cc2)NC1=O) [R4149] | 6260
Ac-[Nva]CY[Tle]K(4‑(dimethylamino)benzoyl‑2,3,5,6‑d4)H[NMeA][Phg][Trp(7-aza)]Y[NMePhe(4-F)][Sar]C-NH2 (linker 2-13 via mXylylene) [R4150] | 7640

The next binders have a lower IC50 than those just listed; values first:

IC50 [nM] | Binder
281 | Ac-[Nva]CY[Tle]KH[NMeS][Phg][Trp(7-aza)]Y[NMePhe(4-F)][Sar]C-NH2 (linker 2-13 via mXylylene; SMILES CCC[C@H](NC(C)=O)C(=O)N[C@H]1CSCc2cccc(c2)CSC[C@@H](C(N)=O)NC(=O)CN(C)C(=O)[C@H](Cc2ccc(F)cc2)N(C)C(=O)[C@H](Cc2ccc(O)cc2)NC(=O)[C@H](Cc2c[nH]c3ncccc23)NC(=O)[C@H](c2ccccc2)NC(=O)[C@H](CO)N(C)C(=O)[C@H](Cc2c[nH]cn2)NC(=O)[C@H](CCCCN)NC(=O)[C@H](C(C)(C)C)NC(=O)[C@H](Cc2ccc(O)cc2)NC1=O) [R4132]
342 | Ac-[Nva]CY[Tle]AH[NMeK](Acryloyl)[Phg][Trp(7-aza)]Y[NMePhe(4-F)][Sar]C-NH2 (linker 2-13 via mXylylene; SMILES C=CC(=O)NCCCC[C@H]1C(=O)N[C@@H](c2ccccc2)C(=O)N[C@@H](Cc2c[nH]c3ncccc23)C(=O)N[C@@H](Cc2ccc(O)cc2)C(=O)N(C)[C@@H](Cc2ccc(F)cc2)C(=O)N(C)CC(=O)N[C@H](C(N)=O)CSCc2cccc(c2)CSC[C@H](NC(=O)[C@H](CCC)NC(C)=O)C(=O)N[C@@H](Cc2ccc(O)cc2)C(=O)N[C@@H](C(C)(C)C)C(=O)N[C@@H](C)C(=O)N[C@@H](Cc2c[nH]cn2)C(=O)N1C) [R4133]
346 | Ac-[Nva]CY[Tle]K(4‑(dimethylamino)benzoyl)H[NMeA][Phg][Trp(7-aza)]Y[NMePhe(4-F)][Sar]C-NH2 (linker 2-13 via mXylylene) [R4134]
364 | Ac-[Nva]CY[Tle]K(ivDde)H[NMeA][Phg][Trp(7-aza)]Y[NMePhe(4-F)][Sar]C (linker 2-13 via m‑xylylene) [R4135]
392 | Ac-[Nva]CY[Tle]A[Dap](Acryloyl)[NMeA][Phg][Trp(7-aza)]Y[NMePhe(4-F)][Sar]C-NH2 (linker 2-13 via mXylylene; SMILES C=CC(=O)NC[C@@H]1NC(=O)[C@H](C)NC(=O)[C@H](C(C)(C)C)NC(=O)[C@H](Cc2ccc(O)cc2)NC(=O)[C@@H](NC(=O)[C@H](CCC)NC(C)=O)CSCc2cccc(c2)CSC[C@@H](C(N)=O)NC(=O)CN(C)C(=O)[C@H](Cc2ccc(F)cc2)N(C)C(=O)[C@H](Cc2ccc(O)cc2)NC(=O)[C@H](Cc2c[nH]c3ncccc23)NC(=O)[C@H](c2ccccc2)NC(=O)[C@H](C)N(C)C1=O) [R4136]
411 | cyclo([Ahx]Y[Tle]KH[NMeA][Phg][Trp(7-aza)]Y[NMePhe(4-F)][Sar][Pra]) (SMILES C#CC[C@@H]1NC(=O)CN(C)C(=O)[C@H](Cc2ccc(F)cc2)N(C)C(=O)[C@H](Cc2ccc(O)cc2)NC(=O)[C@H](Cc2c[nH]c3ncccc23)NC(=O)[C@H](c2ccccc2)NC(=O)[C@H](C)N(C)C(=O)[C@H](Cc2c[nH]cn2)NC(=O)[C@H](CCCCN)NC(=O)[C@H](C(C)(C)C)NC(=O)[C@H](Cc2ccc(O)cc2)NC(=O)CCCCCNC1=O) [R4137]
461 | Glutaryl-[Nva]CY[Tle]K(ivDde)H[NMeA][Phg][Trp(7-aza)]Y[NMePhe(4-F)][Sar]C-NH2 (linker 2-13 via m‑xylylene) [R4138]
522 | cyclo([PEG1]Y[Tle]KH[NMeA][Phg][Trp(7-aza)]Y[NMePhe(4-F)][Sar][Pra]) (SMILES C#CC[C@@H]1NC(=O)CN(C)C(=O)[C@H](Cc2ccc(F)cc2)N(C)C(=O)[C@H](Cc2ccc(O)cc2)NC(=O)[C@H](Cc2c[nH]c3ncccc23)NC(=O)[C@H](c2ccccc2)NC(=O)[C@H](C)N(C)C(=O)[C@H](Cc2c[nH]cn2)NC(=O)[C@H](CCCCN)NC(=O)[C@H](C(C)(C)C)NC(=O)[C@H](Cc2ccc(O)cc2)NC(=O)CCOCCNC1=O) [R4139]
608 | Ac-[Nva]CY[Tle]A[Dab][NMeA][Phg][Trp(7-aza)]Y[NMePhe(4-F)][Sar]C-NH2 (linker 2-13 via mXylylene; SMILES CCC[C@H](NC(C)=O)C(=O)N[C@H]1CSCc2cccc(c2)CSC[C@@H](C(N)=O)NC(=O)CN(C)C(=O)[C@H](Cc2ccc(F)cc2)N(C)C(=O)[C@H](Cc2ccc(O)cc2)NC(=O)[C@H](Cc2c[nH]c3ncccc23)NC(=O)[C@H](c2ccccc2)NC(=O)[C@H](C)N(C)C(=O)[C@H](CCN)NC(=O)[C@H](C)NC(=O)[C@H](C(C)(C)C)NC(=O)[C@H](Cc2ccc(O)cc2)NC1=O) [R4140]
695 | Ac-[Nva]CY[Tle]A[Dap][NMeA][Phg][Trp(7-aza)]Y[NMePhe(4-F)][Sar]C-NH2 (linker 2-13 via mXylylene; SMILES CCC[C@H](NC(C)=O)C(=O)N[C@H]1CSCc2cccc(c2)CSC[C@@H](C(N)=O)NC(=O)CN(C)C(=O)[C@H](Cc2ccc(F)cc2)N(C)C(=O)[C@H](Cc2ccc(O)cc2)NC(=O)[C@H](Cc2c[nH]c3ncccc23)NC(=O)[C@H](c2ccccc2)NC(=O)[C@H](C)N(C)C(=O)[C@H](CN)NC(=O)[C@H](C)NC(=O)[C@H](C(C)(C)C)NC(=O)[C@H](Cc2ccc(O)cc2)NC1=O) [R4141]
1240 | Ac-[Nva]CY[Tle]AH[MORAC][Phg][Trp(7-aza)]Y[NMePhe(4-F)][Sar]C-NH2 (linker 2-13 via mXylylene; SMILES C=CC(=O)NCCC[C@H]1C(=O)N[C@@H](c2ccccc2)C(=O)N[C@@H](Cc2c[nH]c3ncccc23)C(=O)N[C@@H](Cc2ccc(O)cc2)C(=O)N(C)[C@@H](Cc2ccc(F)cc2)C(=O)N(C)CC(=O)N[C@H](C(N)=O)CSCc2cccc(c2)CSC[C@H](NC(=O)[C@H](CCC)NC(C)=O)C(=O)N[C@@H](Cc2ccc(O)cc2)C(=O)N[C@@H](C(C)(C)C)C(=O)N[C@@H](C)C(=O)N[C@@H](Cc2c[nH]cn2)C(=O)N1C) [R4142]
